According to the supplement of paper PMC9170038:

Tested on: MS2 coat protein
Assay: apparent KD of MS2 coat protein; designed switch direction (-1 OFF switch, 1 ON switch): -1; higher = weaker reporter binding
Summary of the method: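 The buffer was Tris-HCl pH 7.5 with KCl, MgCl2, BSA, DTT, tRNA and Tween-20. In it, SNAP-549-labelled MS2 coat protein was titrated in doubling steps from 0.7 or 1.5 nM to 3 µM over chip-bound RNA switches transcribed by stalled E. coli RNA polymerase on Illumina chips. Apparent KD is the per-design median over clusters of curve fits to normalised fluorescence.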

[1] = input ligand: microRNA oligo, concentration not stated
[2] = Eterna round: R95, input ligand: FMN 200 uM
[3] = Eterna round: R95, input ligand: microRNA oligo, concentration not stated
[4] = Eterna round: R95, input ligand: none

Sequence | apparent KD of MS2 coat protein (input ligand: FMN 200 uM) [nM] | apparent KD of MS2 coat protein [1] [nM] | apparent KD of MS2 coat protein (input ligand: none) [nM] | apparent KD of MS2 coat protein [2] [nM] | apparent KD of MS2 coat protein [3] [nM] | apparent KD of MS2 coat protein [4] [nM]
AAACGACAUGAGGAUCACCCAUGUGGCCCUUAGACUCGUAUCGAGGAUAUCCAGGGCCGGGCCGUGGAGAAGGCGAAUUAAAAU [Cetele] (Eterna round: R96, puzzle: Exclusion NG 3) | 63.8 | 28.8 | 43.6 | – | – | –
AAACGCUGAGGAUAUGCGCCGAGGCACAUGAGGAUCACCCAUGUGACCUCACUGCCUUGAGCAGAAGGCAGAAAAU [Vezaatinxe] (puzzle: Exclusion 5) | – | – | – | 137 | 56.4 | 53
AAACGGCAAUAAGGAUAUGCUUACCUGGGUCGUCUUCAAACAUGAGGAUCACCCAUGUAGUCGACGCAGAAGGUAUUCAAAGCC [ExNG2 first] (Eterna round: R96, puzzle: Exclusion NG 2) | 13.5 | 10.4 | 12.8 | – | – | –
AAACGGCGGAUCGUGGCUUUUUGCUCGUCUUGUGCUACAACAUGAGGAUCACCCAUGUAGAGGUGAUCCGUUGUAAA [Grok-var2-18 mod JAL] (puzzle: Sensor v3, turn-off variant 2) | – | – | – | 28 | 17.1 | 38.3
AAACGGGACUGAGGAUAUUCGUUCGAACACGAAGAAGAAGGUAGUGUCAGGGACAUGAGGAUCACCCAUGUGAACUCAGUCCCA [Erinle] (Eterna round: R96, puzzle: Exclusion NG 1) | 32.5 | 21 | 32.3 | – | – | –
AAACUGCAUGUGAGGAUAUGCACCAGCUAAGCCGGGCAGAAGGCACAUGAGGAUCACCCAUGUCAUCCUAUUGC [Latibibe] (puzzle: Brourd's mod of Exclusion 4) | – | – | – | 26.5 | 11.6 | 14.4
AAAGAACAUGAGGAUCACCCAUGUAAGGAUAUGCAAAGAAAGAAAGAAGAAAGAGAAAGCAGAAGGUACAAGAA [JR_Exclu1_Sub071] (puzzle: Exclusion 1) | – | – | – | 34.4 | 44.1 | 36.8
AAAGAACUAGGAUAUACAUGAGGAUCACCCAUGUGCAGCUUAACGGCUCACACCUUAUGUAGAAGGAGUGACCG [Riorenar] (puzzle: Exclusion 3) | – | – | – | – | 16 | –
AAAGAUCAGGUGAGGAUAUACAUAUCGAAAGAUAUGUAGAAGGCACAUGAGGAUCACCCAUGUAUAAGGUUACC [Alacar 2] (Eterna round: R97, puzzle: Brourd's mod of Exclusion 4) | 313 | – | 52.1 | – | – | –
AAAGGGCAAGCAUGAUCCCACAUGAGGAUCACCCAUGUGUUCGUCUUAUAGGCUGCUGAGGCUUUUGCCUCGGUGGC [LRO Sensor-off var1-04 loose mod of D91 from Mat747] (Eterna round: R97, puzzle: Sensor, turn-off variant 1) | 484 | – | 567 | – | – | –
AAAUAACAAGCAAAAAACCACAUGAGGAUCACCCAUGUAAAGGGUGAAGUUCGCACCCAAAAAUAAAAUAAAAAAUA [Mat - Sensor v2 - Eli mod - 173] (Eterna round: R96, puzzle: Sensor v2, turn-off variant) | 29.1 | 75 | 28.3 | – | – | –
AAAUAACAAGCGAGAUCCUACAUGAGGAUCACCCAUGUGCUCGUCUUAUAAAGUACUAUCACGAAAGUGAUAGUACA [Sensor 3, v1 - 13] (puzzle: Sensor v3, turn-off variant 1) | – | – | – | 16.4 | 50.8 | 16.3
AAAUAACUAGGAUAUCGAGGCACAGACAUGAGGAUCACCCAUGUGUGGUCUUCGUGCUUACGAGAAGGAGUACGGC [Teceri] (Eterna round: R96, puzzle: Exclusion 5) | 199 | 175 | 305 | – | – | –
AAAUAACUAGGAUAUCGAGGCACAGACAUGAGGAUCACCCAUGUGUGGUCUUCGUGCUUACGAGAAGGAGUACGGC [Teceri] (puzzle: Exclusion 5) | – | – | – | 55.6 | 168 | 83.3
AAAUAAUAGAUAAAAUAAAACAUGAGGAUCACCCAUGUGGGAUGCUGAGGGUGAUACAAGCUUUUUGCUCGUCUUAU (puzzle: Sensor v3, turn-off variant 1) | – | – | – | 210 | 57.7 | 182
AAAUAAUAGAUAAAAUAACACAUGAGGAUCACCCAUGUGCGAUGUUGAGGGUGAUACAGGCUUUUUGCUCGUCUUAU (Eterna round: R96, puzzle: Sensor v3, turn-off variant 1) | 155 | 415 | 133 | – | – | –
AAAUAAUAGAUAAAAUAACACAUGAGGAUCACCCAUGUGCGAUGUUGAGGGUGAUACAGGCUUUUUGCUCGUCUUAU (puzzle: Sensor v3, turn-off variant 1) | – | – | – | 98.7 | 225 | 132
AAAUAAUAGAUAAAAUAAUACAUGAGGAUCACCCAUGUGGGAUGCUGAGGGUGAUACAGGCUUUUUGCUCGUCUUAU (puzzle: Sensor v3, turn-off variant 1) | – | – | – | 78.7 | 16.3 | 99.9
AAAUACAAGCAAAGAUCUUACAUGAGGAUCACCCAUGUGCUCGUCUUGUAAAGUACUAUCACGAAAGUGAUAGUACA [Sensor 3, v1 - 30] (puzzle: Sensor v3, turn-off variant 1) | – | – | – | 23.1 | 98.8 | 20.4
AAAUACAAGCAAAGAUCUUACAUGAGGAUCACCCAUGUGCUCGUUUUAUAAAGUACUAUCACGAAAGUGAUAGUACA [Sensor 3, v1 - 31] (puzzle: Sensor v3, turn-off variant 1) | – | – | – | 25 | 93.4 | 28.3
AAAUACAAGUAAAGAUCCUACAUGAGGAUCACCCAUGUGUUCGUCUUAUAAAGUACUAUCACGAAAGUGAUAGUACA [Sensor 3, v1 - 24] (puzzle: Sensor v3, turn-off variant 1) | – | – | – | 89 | 131 | 131
AAAUACAAGUAAAGGUUCUACAUGAGGAUCACCCAUGUGCUCGUCUUAUAAAGUACUAUCACGAAAGUGAUAGUACA [Sensor 3, v1 - 39] (puzzle: Sensor v3, turn-off variant 1) | – | – | – | 19.2 | 92.5 | 16
